The labels stand for the following.
B1: Posavirus 1 (nucleic acid)
DNA: ACATTTCCTTGCGTGCGCACCCGAAAATTTATTGAACTTGGCTTGAATCATAAGTAATGCTTCTTATAGCGGACACTTTGAGAATATAATGCTTGTATGGATTAATGTATACTGTTTTAAATAACAAACCTAGACACGCAGTTGCGTTGATGGTTGTATCAATCACATATAAGTGTTGAACTCGTGTTAATCCTCGATCGCTATATGTTTGCCGCCTACTTCCAATAAAATAGATTACATGCGCGTCATGCCTTTGTGGGTTACCTATTGGCCTCTGACAAAAACAAGTCGTAAGATTTGTAGCTTCCCGGTGTAAAAAGCTGGGCGCGGTCTGGCTCTCGTAGGGTGGAAAGGTCCACCAATGGCTGGTTGAGTGTAAGCTCCGGTGTCCTGGTTGTCGCAATTCCAGGCGTCGTAATAACCTATATTGCATCTGACTCTAACTCTTGTGGCTCTACTGTATCTAGTTCTTGTTCTACTAACTCTAATAATACTACTGGCTCTAATACTGAAAAACTTACATATGTTAATATAGATAATATCCTTGATCCTGATATCCCTCACGTCACTGAAGTTCGCCGAAAACGAATTTCAGATCATATCATTGAATCTCAAGGATGTACTTGCTCTGAACCTACTATAACTCCTCATGCGTTTTCATTTTCTACTCTTGGC
B2: Tropivirus A (nucleic acid)
DNA: TGTCGCATGTTGCCAACATCAAAATTCTGGGAGAGTCGCGAACTCCTTAACACTGCCTTGCCTCGACGGAGCCGTTGTTATAGTGTCGACGGGATACAAACATTAAACTAAACCCACTTGCCTCGACGGAACCCCTTACCTTTTATTTTATTTTATAGTATGAAAGTGAATCTTGTATGAATGTTCATAGAAAACTGCAAATGAGTACCACGTCTAACATGAGAGAATGATACTGGAGAAATCCAAGTTTAGAAGTCACTACGAATCCCAGCGGAAACAAGGGAATTCTGAGCTTCTAATAGGCGTTTAAGACTATTTGCAAAATTCTGGTGCGTAAGTGATATTTTCATTGCGTAGAACGCTGGTAACCACTCCGGCTAGTATAAGCATTGTTAGTCACTTATTATGAAACTCCACACTATCCTTTCTGGAGAAGCACACAAACTTACATGGTAAAGCTAGACCATTATCTTAAGCGGTGAGTACACTGCAACCTTGTAACAATGCTTGTATGACTACTTTTTGTATATCTTGAGCAATATTGTTGAGGTGGACATGTCCAAAGGTAATGTTGTTGGGAATGGAGGGGTCCATTTTCCCGTGCACGTAGTGTACTAGTATTGGGTGATAGCCTTGCGGCGGATCAACCATGTATTTTAATCCGTTGACTTTCAC
modifications: Tropivirus A
B3: 18-675 (nucleic acid)
DNA: CCCACAGCAAGAATGCCATCATCTGTCCTCACCCCCAATTTTCCCTTTTCTTCCCCTGCAACCATTACGCTTACTCGCATGTGCATTGAGTGGTGCATGTGTTGAACAAACAGCTACACTCACATGGGGGCGGGTTTTCCCGCCCTACGGCCTCTCGCGAGGCCCACCCCTTCCCTCCCCTTATAACTACAGTGCTTTGGTAGGTAAGCATCCTGATCCCCCGCGGAAGCTGCTCACGTGGCAACTGTGGGGACCCAGACAGGTTATCAAAGGCACCCGGTCTTTCCGCCTTCAGGAGTATCCCTACTAGTGAATTCTAGCGGGGCTCTGCTTGGTGCCAACCTCCCCCAAATGCGCGCTGCGGGAGTGCTCTTCCCCAACTCACCCTAGTATCCTCTCATGTGTGTGCTTGGTCAGCATATCTGAGACGATGTTCCGCTGTCCCAGACCAGTCCAGTAATGGACGGGCCAGTGCGTGTAGTCGTCTTCCGGCTTGTCCGGGGCATGTTTGGTGAACCGGTGGGGTAAGGTTGGTGTGCCCAACGCCCGTACTTTGGTGACACCTCAAGACCACCCAGGAATGCCAGGGAGGTACCCCACCTCACGGTGGGATCTGACCCTGGGCTAATTGTCTACGGTGGTTCTTCTTGCTTCCACTTCTTTCTTCTGTTCACG
B4: Kobuvirus 16317 (nucleic acid, listed as Kobuvirus sp.)
DNA: TTACTCCATTCAGCTTCTTCGGAACCTGTTCGGAGGAATTAAACGGGCACCCATACACCCCCATCCCCTTTCTGCAACTTAAGTATGTGTGCTCGTGATCTTGACTCCCACGGAATGGATCGATCCGCTGGAGAACAAACTGCTAGATCCACATCCTCCCTTCCCCTGGGAGGACCTTGGTCCTCCCACATCCTCCCCCCAGCCTGACGTACCACAGGCTGTGTGAAGCCCCCGCGAAAGCTGCTCACGTGGCAATTGTGGGTCCCCCCTTCATCAAGACACCAGGTCTTTCCTCCTTAAGGCTAGCCCCGATGTGTGAATTCACATTGGGCAACTAGTGGTGTCACTGTGCGCTCCCAATCTCGGCCGCGGAGTGCTGTTCCCCAAGCCAAACCCCTGGCCCTTCACTATGTGCCTGGCAAGCATACCTGAGAAGGTGTTCCGCTGTGGCTGCCAGCCTGGTAACAGGTGCCCCAGTGTGCGTAACCTTCTTCCGTCTTCGGACGGTAGTGATTGGTTAAGATTTGGTGTAAGGTCCATGTGCCAACGCCCTGTGCGGGATGAAACCTCTACTGCCCTAGGAATGCCAGGCAGGTACCCCACCCCCGGGTGGGATCTGAGCCTGGGCTAATTGTCTACGGGTAGTTTCATTTCCAATTCTTTTATGTCGGAGTC
B5: A115-675 (nucleic acid)
DNA: ACCTTTGTGCGCCTGTTTTATACCCCCCCCAACCTCGAAACTTAGAAGTAAAGCAAACCCGATCAATAGCAGGTGCGGCGCACCAGTCGCATCTTGATCAAGCACTTCTGTAACCCCGGACCGAGTATCAATAGACTGCTCACGCGGTTGAAGGAGAAAACGTTCGTTACCCGGCTAACTACTTCGAGAAACCCAGTAGCATCATGAAAGTTGCAGAGTGTTTCGCTCAGCACTACCCCCGTGTAGATCAGGCCGATGAGTCACCGCACTTCCCCACGGGCGACCGTGGCGGTGGCTGCGTTGGCGGCCTGCCTATGGGGCAACCCATAGGACGCTCTAATACGGACATGGTGCGAAGAGTCTATTGAGCTAGTTAGTAGTCCTCCGGCCCCTGAATGCGGCTAATCCTAACTGCGGAGCACATACCCTTAATCCAAAGGGCAGTGTGTCGTAACGGGTAACTCTGCAGCGGAACCGACTACTTTGGGTGTCCGTGTTTCCTTTTAATTTTTACTGGCTGCTTATGGTGACAATTGAGGAATTGTTGCCATATAGCTATTGGATTGGCCATCCGGTGACTAACAGAGCTATTGTGTTCCAATTTGTTGGATTTACCCCGCTCACACTCACAGTCGTAAGAACCCTTCATTACGTGTTATTTCTCAACTCAAGAAA
B6: A105-675 (nucleic acid)
DNA: CCACCCACAGCAAGAATGCCATCATCTGTCCTCACCCCCATTTCTCCCCTCCTTCCCCTGCAACCATTACGCTTACTCGCATGTGCATTGAGTGGTGCACGTGTTGAACAAACAGCTACACTCACGTGGGGGCGGGTTTTCCCGCCCTTCGGCCTCTCGCGAGGCCCACCCTTCCCCTTCCTCCCATAACTACAGTGCTTTGGTAGGTAAGCATCCTGATCCCCCGCGGAAGCTGCTCGCGTGGCAACTGTGGGGACCCAGACAGGTTATCAAAGGCACCCGGTCTTTCCGCCTCCAGGAGTATCCCTGCTAGTGAATTCTAGTGGGGCTCTGCTTGGTGCCAACCTCCCCCAAATGCGCGCTGCGGGAGTGCTCTTCCCCAACTCACCCTAGTATCCTCTCATGTGTGTGCTTGGTCAGCATATCTGAGACGATGTTCCGCTGTCCCAGACCAGTCCAGCAATGGACGGGCCAGTGTGCGTAGTCGTCTTCCGGCTTGTCCGGCGCATGTTTGGTGAACCGGTGGGGTAAGGTTGGTGTGCCCAACGCCCGTACTTTGGTGACAACTCAAGACCACCCAGGAATGCCAGGGAGGTACCCCGCCTCACGGCGGGATCTGACCCTGGGCTAATTGTCTACGGTGGTTCTTCTTGCTTCCATTTCTTTCTTCTGTTC
B7: A73-675 (nucleic acid)
DNA: TTACTCCATTCAGCTTCTTCGGAACCTGTTCGGAGGAATTAAACGGGCACCCATACTCCCCCCACCCCCCTTTTGTAACTAAGTATGTGTGCTCGTGATCTTGACTCCCACGGAACGGACCGATCCGTTGGTGAACAAACAGCTAGGTCCACATCCTCCCTTCCCCTGGGAGGGCCCCCGCCCTCCCACATCCTCCCCCCAGCCTGACGTATCACAGGCTGTGTGAAGCCCCCGCGAAAGCTGCTCACGTGGCAATTGTGGGTCCCCCCTTCATCAAGACACCAGGTCTTTCCTCCTTAAGGCTAGCCCCGGCGTGTGAATTCACGTTGGGCAACTAGTGGTGTCACTGTGCGCTCCCAATCTCGGCCGCGGAGTGCTGTTCCCCAAGCCAAACCCCTGGCCCTTCACTATGTGCCTGGCAAGCATATCTGAGAAGGTGTTCCGCTGTGGCTGCCAACCTGGTGACAGGTGCCCCAGTGTGCGTAACCTTCTTCCGTCTCCGGACGGTAGTGATTGGTTAAGATTTGGTGTAAGGTTCATGTGCCAACGCCCTGTGCGGGATGAAACCTCTACTGCCCTAGGAATGCCAGGCAGGTACCCCACCTCCGGGTGGGATCTGAGCCTGGGCTAATTGTCTACGGGTAGTTTCATTTCCAATCCTTTTATGTCGGAGTC
B8: A110-675 (nucleic acid)
DNA: ACCTTTGTGCGCCTGTTTTATACCCCCTCCCCCAACTGTAACTTAGAAGTAACACACACCGATCAACAGTCAGCGTGGCACACCAGCCACGTTTTGATCAAGCACTTCTGTTACCCCGGACTGAGTATCAATAGACTGCTCACGCGGTTGAAGGAGAAAGCGTTCGTTATCCGGCCAACTACTTCGAAAAACCTAGTAACACCGTGGAAGTTGCAGAGTGTTTCGCTCAGCACTACCCCAGTGTAGATCAGGTCGATGAGTCACCGCATTCCCCACGGGCGACCGTGGCGGTGGCTGCGTTGGCGGCCTGCCCATGGGGAAACCCATGGGACGCTCTAATACAGACATGGTGCGAAGAGTCTATTGAGCTAGTTGGTAGTCCTCCGGCCCCTGAATGCGGCTAATCCTAACTGCGGAGCACACACCCTCAAGCCAGAGGGCAGTGTGTCGTAACGGGCAACTCTGCAGCGGAACCGACTACTTTGGGTGTCCGTGTTTCATTTTATTCCTATACTGGCTGCTTATGGTGACAATTGAGAGATCGTTACCATATAGCTATTGGATTGGCCATCCGGTGACTAATAGAGCTATTATATATCCCTTTGTTGGGTTTATACCACTTAGCTTGAAAGAGGTTAAAACATTACAATTCATTGTTAAGTTGAATACAGCAAA

The subject of the data set is HEK293 cells. It counts as cell-based, human. As to conditions: luminescence from secreted Gluc in supernatant 24 hours after transfection of HEK293 cells; circular RNA encoding Gluc with the named IRES (UTR truncated to 675 nt).
Regarding B1, the Expression stood at 1.55E+06.

The molecule B2 yielded an Expression of 9.52E+04.

Turning to B3, the Expression worked out at 6.04E+07.

Molecule B4 returned an Expression of 2.03E+07.

As to B5, the Expression was 5.93E+07.

As for B6, the Expression came out at 2.18E+07.

With B7, the Expression is 1.30E+08.

B8: the Expression turned out to be 1.24E+08.
